# Reference: patent US9725708B2, “Methods of modulating ubiquitin ligase activity” (Board of Supervisors of Louisiana State University and …, priority 2012, dated 2017)
# Read-outs that look alike come from different tables or passages of the source. No end group written: not given here.
# B1: GST-E6AP ligase Hect domain: GST fusion of E6AP ligase Hect domain residues 450-852 (protein, UniProt Q05086 450-852, looked up, fragment)
# chain: INEPLNEVLEMDKDYTFFKVETENKFSFMTCPFILNAVTKNLGLYYDNRIRMYSERRITVLYSLVQGQQLNPYLRLKVRRDHIIDDALVRLEMIAMENPADLKKQLYVEFEGEQGVDEGGVSKEFFQLVVEEIFNPDIGMFTYDESTKLFWFNPSSFETEGQFTLIGIVLGLAIYNNCILDVHFPMVVYRKLMGKKGTFRDLGDSHPVLYQSLKDLLEYEGNVEDDMMITFQISQTDLFGNPMMYDLKENGDKIPITNENRKEFVNLYSDYILNKSVEKQFKAFRRGFHMVTNESPLKYLFRPEEIELLICGSRNLDFQALEETTEYDGGYTRDSVLIREFWEIVHSFTDEQKRLFLQFTTGTDRAPVGGLGKLKMIIAKNGPDTERLPTSHTCFNVLLLPEY
# modifications: HECT domain GST fusion
# B2: E6(HPV16)Ct: recombinant E6 C-terminal domain encompassing residues 89-158 (protein, UniProt P03126 89-158, looked up, fragment)
# chain: SLYGTTLEQQYNKPLCDLLIRCINCQKPLCPEEKQRHLDKKQRFHNIRGRWTGRCMSCCRSSRTRRETQL
# B3: E6(HPV16)Δ91: recombinant E6 N-terminal domain encompassing residues 1-91 (protein, UniProt P03126 1-91, looked up, fragment)
# chain: MHQKRTAMFQDPQERPRKLPQLCTELQTTIHDIILECVYCKQQLLRREVYDFAFRDLCIVYRDGNPYAVCDKCLKFYSKISEYRHYCYSLY
# Key:
# [1] = biological target: T1, UbcH7˜ubiquitin thioester (Homo sapiens, UniProt P68036); assay: Kinetics of 125I-polyubiquitin chain formation by E6AP ligase forms with respect to [UbcH7]o; assay type: biochemical
# T1 construct: made in house
# T1 sequence (P68036 whole entry, other chains not shown): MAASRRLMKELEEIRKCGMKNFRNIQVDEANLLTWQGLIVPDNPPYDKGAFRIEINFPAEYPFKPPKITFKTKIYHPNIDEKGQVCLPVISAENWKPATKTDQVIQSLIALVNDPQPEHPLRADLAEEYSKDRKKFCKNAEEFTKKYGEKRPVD
# Method: (§1) E6AP-catalyzed ^125I-Ubiquitin Conjugation Assay: The E3 ligase activity of recombinant E6AP ligase was quantitated in kinetic assays under initial velocity conditions (Ronchi et al., (2013) J. Biol. Chem. 288, 10349-10360, Ronchi & Haas (2012) Methods Mol. Biol. 832: 197-218). Rates of E6AP-catalyzed ^125I-polyubiquitin chain formation were measured at 37° C. in incubations of 25-μl final volume containing 50 mM Tris-HCl (pH 7.5), 1 mM ATP, 10 mM MgCl2, 1 mM DTT, 10 mM creatine phosphate, 1 IU of creatine phosphokinase, 5 μM ^125I-ubiquitin (approximately 1.5×10^4 cpm/pmol), 50 nM human Uba1, and the indicated concentrations of UbcH7 and E6AP ligase (Siepmann et al., (2003) J. Biol. Chem. 278: 9448-9457; Baboshina et al., (2001) J. Biol. Chem. 276: 39428-39437).
# (§2) Reactions were initiated by the addition of ^125I-ubiquitin. After 10-30 min, the reactions were quenched by the addition of 25 μl of 2×SDS sample buffer containing 0.3% (v/v) β-mercaptoethanol, and then the samples were heated to 100° C. for 3 min. The polyubiquitin conjugates were resolved from free ^125I-ubiquitin by 12% (w/v) SDS-PAGE under reducing conditions at 4° C. and visualized by autoradiography of the dried gels.
# (§3) Polyubiquitin chain formation was measured by excising lanes between the top of the resolving gel and the top of the stacker gel, representing anchored and free ^125I-polyubiquitin chains, respectively, and quantitating associated ^125I-ubiquitin by γ-counting. Absolute rates of ^125I-polyubiquitin chain formation were calculated from the associated radioactivity and the corrected specific radioactivity for ^125I-ubiquitin. Datum points represent single assay determinations, and complete data sets were evaluated by non-linear regression analysis using GraFit version 5.0 (Erithicus). Active Uba1, E2, and E6AP ligase were independently determined in parallel by their stoichiometric formation of ^125I-ubiquitin thioester.
# His6-E6AP ligase = biological target: T2, His6-E6AP ligase (Homo sapiens, UniProt Q05086); assay: Static light-scattering of His6-E6AP ligase oligomer
# T2 construct: Full-length recombinant His6-E6AP ligase was isolated from the medium; made in house; host or cells: Sf9 insect cells (baculovirus)
# T2 sequence (Q05086 1-872 isoform Q05086-3): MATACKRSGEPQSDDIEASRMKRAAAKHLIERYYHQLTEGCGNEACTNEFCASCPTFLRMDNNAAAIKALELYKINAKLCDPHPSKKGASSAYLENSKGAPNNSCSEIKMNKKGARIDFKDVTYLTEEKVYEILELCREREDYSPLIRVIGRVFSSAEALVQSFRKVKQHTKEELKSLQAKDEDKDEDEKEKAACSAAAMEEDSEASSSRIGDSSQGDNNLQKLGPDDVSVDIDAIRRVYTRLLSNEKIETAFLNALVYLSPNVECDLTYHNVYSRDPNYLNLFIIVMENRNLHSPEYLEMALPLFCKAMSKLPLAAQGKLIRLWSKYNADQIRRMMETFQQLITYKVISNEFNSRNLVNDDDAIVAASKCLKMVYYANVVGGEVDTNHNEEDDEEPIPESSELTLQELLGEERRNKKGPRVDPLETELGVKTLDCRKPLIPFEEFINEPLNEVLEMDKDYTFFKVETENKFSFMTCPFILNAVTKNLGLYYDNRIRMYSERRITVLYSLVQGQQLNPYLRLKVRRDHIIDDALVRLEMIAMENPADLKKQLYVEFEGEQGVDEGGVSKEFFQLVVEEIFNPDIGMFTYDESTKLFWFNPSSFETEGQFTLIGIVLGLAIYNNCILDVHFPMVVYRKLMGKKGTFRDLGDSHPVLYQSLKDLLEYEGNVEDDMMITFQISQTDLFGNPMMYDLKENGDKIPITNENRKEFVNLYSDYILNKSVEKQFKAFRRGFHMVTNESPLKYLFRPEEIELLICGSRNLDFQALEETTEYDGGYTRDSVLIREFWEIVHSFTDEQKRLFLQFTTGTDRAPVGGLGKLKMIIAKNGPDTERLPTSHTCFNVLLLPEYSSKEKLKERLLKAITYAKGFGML
# Method: Static Light-scattering Measurements: His6-E6AP ligase after the His trap affinity purification step was further purified by FPLC using a Mono Q 5/50 column (Amersham Biosciences) equilibrated in 50 mM Tris-HCl (pH 7.5) and 1 mM DTT. Recombinant His6-E6AP ligase eluted at 300 mM NaCl in a 0-500 mM gradient (16 mM/ml, 1 ml/min). The molecular weight of His6-E6AP ligase was determined in solution at 37° C. by static light-scattering using a 235-DynaPro NanoStar laser light-scattering spectrometer at 663 nm wavelength (Wyatt Technology Corp.). Spectra were collected for 18 μM His6-E6AP ligase in 50 mM Tris-HCl (pH 7.5) containing 200 mM NaCl. The effect of Ac-PheNH2 on the molecular weight of His6-E6AP ligase was determined in 50 mM Tris-HCl (pH 7.5) containing 200 mM NaCl, 16 μM His6-E6AP ligase total protein, 61 mM Ac-PheNH2, and 8% (v/v) carrier methanol. The molecular weight of E6AP ligase was also evaluated in reactions containing 0-350 μM Ac-NRIRMYSERRITVLYSL (SEQ ID NO: 1) in 50 mM Tris-HCl (pH 7.5), 250 mM NaCl, 1 mM DTT, and 17 μM His6-E6AP. Data were analyzed with Dynamics® software at both default and maximum sensitivity to detect the presence of low concentrations of E6AP ligase oligomeric forms.
# E6AP ligase [2] = biological target: T3, E6AP ligase (Homo sapiens, UniProt Q05086); assay: E6AP-catalyzed 125I-polyubiquitin chain formation, initial rates; assay type: biochemical; conditions: for mode of action: with respect to [UbcH7]o
# T3 construct: corresponding to full-length GST-E6AP; made in house; host or cells: E. coli
# T3 sequence (Q05086 1-872 isoform Q05086-3): T2 sequence (Q05086 1-872 isoform Q05086-3)
# Method: as §1, §2, §3
# GST [3] = biological target: T4, GST (Schistosoma japonicum, UniProt P08515); assay: GST dimerization; assay type: binding; conditions: predicted from ΔΔGbinding of GST-E6APΔ495 vs E6APΔ495
# T4 sequence (P08515 whole entry): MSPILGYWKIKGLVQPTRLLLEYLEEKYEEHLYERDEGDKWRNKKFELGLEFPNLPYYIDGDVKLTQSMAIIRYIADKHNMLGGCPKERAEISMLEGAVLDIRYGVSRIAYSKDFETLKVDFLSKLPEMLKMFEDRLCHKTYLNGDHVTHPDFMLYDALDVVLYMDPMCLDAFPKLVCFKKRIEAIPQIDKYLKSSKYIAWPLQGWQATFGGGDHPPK
# GST [4] = biological target: T4, GST; conditions: literature value, cited from earlier work
# E6AP ligase [5] = assay: E6AP-catalyzed 125I-polyubiquitin chain formation, initial rates; assay type: biochemical, Human; conditions: free GST less than 5 μM; GST-E6AP
# Method: as §1, §2, §3
# [6] = Table 1, Hect domain row is monoubiquitination
# [7] = non-competitive with respect to [UbcH7]o, His6-E6AP, read-out: Ki
molecule,measurement,setting,value
Homogeneous His6-E6AP: baculoviral-expressed full-length His6-E6AP ligase,Km,[1],0.046 ± 0.007 µM
same,kcat,[1],0.63 ± 0.03 s⁻¹
same,kcat higher than heterogeneous GST-E6AP,[1],20 fold
same,kcat,[1]; Table 1,6.3 ± 0.3 × 10^−1 s^−1
same,Km,[1]; [6],0.046 ± 0.007 µM
"CC(=O)N[C@@H](Cc1ccccc1)C(N)=O [Ac-PheNH2, N-acetyl-L-phenylalanylamide]",effect on E6AP ligase oligomer,His6-E6AP ligase,disrupts trimer formation
same,molecular weight of His6-E6AP ligase peak after addition,"His6-E6AP ligase; 61 mM Ac-PheNH2, 16 μM His6-E6AP, 8% methanol",104 kDa
same,Ki,"E6AP ligase [2]; 125I-polyubiquitin chain formation, read-out: Ki",12000 ± 3000 µM
same,Ki,"E6AP ligase [2]; His6-E6AP, non-competitive with respect to [UbcH7]o, absence or presence of 44 mM Ac-PheNH2, read-out: Ki",12000 ± 3000 µM
same,effect on polyubiquitin chain formation,"E6AP ligase [2]; inhibitors, at higher concentrations",quantitative inhibition
same,mode of action,E6AP ligase [2],non-competitive inhibitor
"Ac-NRIRMYSERRITVLYSL [Ac-NRIRMYSERRITVLYSL peptide, Ac-NRIRMYSERRITVLYSL]",effect on E6AP ligase oligomer,His6-E6AP ligase,promotes dissociation
same,Ki,"E6AP ligase [2]; His6-E6AP, hyperbolic dependence, semi-reciprocal plot, read-out: Ki (apparent)",22 ± 2 µM
same,mode of action,E6AP ligase [2],non-competitive inhibitor
GST: recombinant free glutathione-S-transferase,Kd for GST association,GST [3],1.6 µM
same,Kd,"GST [4]; b128, read-out: Kd for GST dimerization",0.6 µM
same,"Kd for GST association, published value",GST [4]; b130,0.6 µM
same,K½ of decrease in initial rate of polyubiquitin chain formation,E6AP ligase [5],approximately 1 μm
B1,Km,[1],0.089 ± 0.011 µM
same,kcat lower than full-length E6AP ligase,[1],2000 fold
same,kcat,[1]; Table 1,3.2 ± 0.1 × 10^−4 s^−1
same,Km,[1]; [6],0.089 ± 0.011 µM
B2,Ki,E6AP ligase [2]; [7],4 µM
same,mode of action,E6AP ligase [2],non-competitive inhibitor
B3,Ki,"E6AP ligase [2]; hyperbolic concentration dependence, not shown, read-out: apparent Ki",4 µM
same,Ki,E6AP ligase [2]; [7],6 µM
same,mode of action,E6AP ligase [2],non-competitive inhibition
